The results in this text go back to patent US20180303898A1 (SANFORD BURNHAM PREBYS MEDICAL DISCOVERY INSTITUTE, published 2018).

Bridges are numbered along the chain shown (N, C = ends). Where no end group is shown, it is not given here. FAM = 5(6)-carboxyfluorescein; Ahx = NCCCCCC(=O)O

The target in experiment [1] is T1, recombinant 6x-His-tagged p32 protein (p32/p33/gC1qR/HABP1) (UniProt Q07021 74-282).
T1 construct: not shown: 6x-His tag
T1 sequence (looked up): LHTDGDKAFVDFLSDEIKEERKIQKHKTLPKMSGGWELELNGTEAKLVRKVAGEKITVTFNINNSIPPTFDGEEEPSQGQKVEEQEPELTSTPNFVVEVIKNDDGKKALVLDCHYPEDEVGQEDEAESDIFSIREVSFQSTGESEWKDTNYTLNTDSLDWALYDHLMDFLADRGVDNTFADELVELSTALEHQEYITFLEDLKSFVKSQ
The experiment in a line: fluorescence polarization, FAM-labeled peptide constant, p32 titrated (FIG. 2A). As for the experimental part:
FIGS. 2A-2D are graphs showing FP- and phage binding-based validation of p32 binding peptides and hit compounds. […] Measurements were performed with PheraStar FS plate reader (BMG Labtech, Ortenberg, Germany) on 384-well plate. […] (C) Assessment of hit compound binding to a non-target secondary protein, NRP-1, to determine the specificity of the hit compounds in FP assay. A known NRP-1 binding peptide, RPARPAR (SEQ ID NO:18), was used as a control. (D) Effect of the hit compounds on the TT1 phage binding to p32 protein. TT1 phage binding to p32 in the presence of 100 μM hit compounds was determined in ELISA-type of binding assay. Each data point presents average±S.D., n=4.
The assay was initially set up in 20 μl well volume in 384 well plate (Corning Life Sciences), and measurements were carried out using PheraStar FS plate reader (BMG LABTECH, Ortenberg, Germany) in quadruplicate. […] Optimal concentration of fluorescein (FAM) labeled-peptides for the assay was determined by measuring the limit of detection (LOD), signal-to-background ratio (S/B), and stability of mP value over series of peptide concentrations. In the binding assay, the concentration of FAM-peptide was kept constant, and the FP was measured over the range of target protein concentrations. […]
Background: Fluorescence polarisation rises when a labelled molecule tumbles more slowly, as on binding a larger partner.

The target in experiment [2] is T2, b1b2 domain of neuropilin-1 (NRP-1), recombinant (UniProt O14786 273-586, limits assumed).
T2 construct: domain: b1b2 domain; also called NRP-1 b1b2; b1b2 domain of NRP-1
T2 sequence (looked up): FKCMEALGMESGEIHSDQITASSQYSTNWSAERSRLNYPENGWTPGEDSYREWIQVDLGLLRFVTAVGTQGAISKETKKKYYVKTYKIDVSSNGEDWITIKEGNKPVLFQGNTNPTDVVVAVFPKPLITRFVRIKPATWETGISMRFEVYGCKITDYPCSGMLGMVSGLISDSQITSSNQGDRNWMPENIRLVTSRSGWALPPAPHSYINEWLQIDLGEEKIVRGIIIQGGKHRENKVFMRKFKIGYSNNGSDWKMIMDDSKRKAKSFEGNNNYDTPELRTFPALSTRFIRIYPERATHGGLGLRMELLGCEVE
In words: fluorescence polarization, recombinant b1b2 domain of NRP-1. How it is done:
FIG. 8 is a graph showing specificity of TT1 binding. Specificity of TT1 was further evaluated by measuring the binding of FAM-TT1 to recombinant non-target protein, b1b2 domain of neuropilin-1 (NRP-1). The binding was studied by fluorescence polarization. […] Each data point presents average±S.D., n=4-6.
(§1) The assay was initially set up in 20 μl well volume in 384 well plate (Corning Life Sciences), and measurements were carried out using PheraStar FS plate reader (BMG LABTECH, Ortenberg, Germany) in quadruplicate. Peptide and protein stock solutions were diluted to desired concentration with assay buffer (50 mM BIS-TRIS pH 7.4, 0.05% Tween20, 1 mM DTT). FAM-labeled peptides were protected from light during the experiment to avoid photobleaching. Optimal concentration of fluorescein (FAM) labeled-peptides for the assay was determined by measuring the limit of detection (LOD), signal-to-background ratio (S/B), and stability of mP value over series of peptide concentrations. In the binding assay, the concentration of FAM-peptide was kept constant, and the FP was measured over the range of target protein concentrations. The peptide dissociation constant (KD) was obtained by fitting the binding curve into Michaelis-Menten kinetics in GraphPad Prism-software (GraphPad Software, Inc., CA, USA). […]

For experiment [3], the target named is T1, recombinant 6x-His-tagged p32 protein …. In words: fluorescence polarization, FAM-TT1 constant, p32 titrated, in BIS-TRIS buffer. As for the experimental part:
FIG. 6 is a graph showing the effect of buffer solution on interaction of TT1 and p32. The binding affinity of FAM-labeled TT1 to p32 was studied in different assay buffers: in PBS, HEPES, and BIS-TRIS, respectively. The binding was measured by fluorescence polarization (FP) and observed as increased FP value. Binding constants (KD) were calculated by fitting the binding curves into Michaelis-Menten kinetics. Each data point presents average±S.D., n=4-6.
as §1, with “concentrations.” for “concentrations. The peptide dissociation constant (KD) was obtained by fitting the binding curve into Michaelis-Menten kinetics in GraphPad Prism-software (GraphPad Software, Inc., CA, USA).”

As a reminder, the Kd is the concentration at which binding is half-saturated. On to {FAM-Ahx}-CGNKRTRGC (disulfide 1-9 (inferred), also called FAM-LyP-1) [FAM-labeled LyP-1 peptide (CGNKRTRGC)], for which the Kd in experiment [1] was determined as 23 µM.

B1: FAM-labeled TT1 peptide (CKRGARSTC) (peptide)
peptide: {FAM-Ahx}-CKRGARSTC
modifications: disulfide (positions not given here); not fully specified (bridges); also: cyclic peptide, ring type not given here
notes: Synthetic fluorescent peptide used as the probe in the fluorescence polarization assays; also called FAM-TT1; FAM-TT-1
B1: the binding result in experiment [2] is recorded as “no binding”. Also, the Kd in experiment [3] came to 2.3 µM.
